Measurements published in US20170037110A1 (IMMATICS BIOTECHNOLOGIES, published 2017).

What follows are binders tested against T1, HLA-A*02:01 (human) (assay: UV peptide exchange ELISA).
T1 construct: monomers captured on streptavidin plates; also called MHC class I
Procedure, shortened: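 Peptide-MHC complexes formed by UV-triggered exchange of a cleavable peptide for the test peptide, with stabilised complexes indicating binding. Exchange products diluted 100 fold onto streptavidin-coated wells, 1h at 37° C.; HRP anti-β2m (2 μg/ml), TMB, absorbance at 450 nm gives exchange yield.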

Binder | peptide exchange yield
SLLPLSHLV | 50 to 75%
ILLNNSGQIKL | ≥ 75%
YVLEGLKSV | 50 to 75%
ALFDAQAQV | 50 to 75%
VLSSLEINI | 20 to 50%
VMNDRLYAI | 50 to 75%
TLYDIAHTPGV | ≥ 75%
RVWDISTVSSV | 50 to 75%
TLAPGEVLRSV | 50 to 75%
LLLAHIIAL | 20 to 50%
ALIENLTHQI | 20 to 50%
SLWQDIPDV | 50 to 75%
ILVANAIVGV | 50 to 75%
LLMPIPEGLTL | 50 to 75%
LLWDVPAPSL | 50 to 75%
FLLEPGNLEV | ≥ 75%
ALWENPESGEL | 20 to 50%
ILLSVPLLVV | 20 to 50%
ALANQIPTV | 20 to 50%
WLLPYNGVTV | 50 to 75%
AMLENASDIKL | 50 to 75%
YLISQVEGHQV | 50 to 75%
LLMENAERV | 20 to 50%
TLCDVILMV | 50 to 75%
VMYADIGGMDI | 50 to 75%

Binder | peptide exchange yield
YLQLTQSEL | 50 to 75%
LLMPSSEDLLL | 50 to 75%
ILDPISSGFLL | 20 to 50%
LLLTTIPQI | 50 to 75%
ILTEENIHL | 50 to 75%
VIADGGIQNV | 20 to 50%
SLMPHIPGL | 50 to 75%
FLTDLEDLTL | 50 to 75%
KLYESLLPFA | 50 to 75%
LLADELITV | 50 to 75%
FLYDEIEAEVNL | 50 to 75%
ALWDLAADKQTL | ≥ 75%
KLVDRTWTL (probably a misprint of W as VV) | 50 to 75%
RLAEVGQYEQV | 20 to 50%
KLNAEVACV | 50 to 75%
SMLEPVPEL | 50 to 75%
VMIAGKVAVV | 50 to 75%
VLLEAGEGLVTI | 50 to 75%
TLWYRSPEV | 20 to 50%
TVTNAVVTV | 50 to 75%
GLLHLTLLL | 50 to 75%
ILANDGVLLAA | 50 to 75%
ALWDIETGQQTTT | 50 to 75%
GLLDLPFRVGV | ≥ 75%
NLMEMVAQL | 20 to 50%

Binder | peptide exchange yield
LAVHPSGVAL | 10 to 20%
GLLENIPRV | 50 to 75%
YLEELPEKLKL | 50 to 75%
ALQETPTSV | 20 to 50%
SLLNQDLHWSL | ≥ 75%
VMFEDGVLMRL | 50 to 75%
ALADLIEKELSV | 50 to 75%
KLKPGDLVGV | 50 to 75%
YTLPIASSIRL | 50 to 75%
KLYDDMIRL | 50 to 75%
GLLPTPITQQASL | 50 to 75%
FLDPGGPMMKL | 50 to 75%
YLLQEPPRTV | 20 to 50%
MLLTKLPTI | 50 to 75%
YQIPRTFTL | 20 to 50%
VTVPPGPSL | 20 to 50%
KLYPQLPAEI | 50 to 75%
LLADLLHNV | 50 to 75%
SVAEGRALMSV | 50 to 75%
TLDITPHTV | 50 to 75%
SLLPLDDIVRV | 50 to 75%
ALAEVAAMENV | 50 to 75%
VLLQKIVSA | 50 to 75%
